Measured values from patent US6942981.
Ends that are not written are not given here. * marks the point of attachment. Biotin = O=C1N[C@H]2[C@H](CS[C@H]2CCCCC(=O)*)N1

T1: GST-NeDLG PDZ domains 1-2 fusion protein (Mus musculus (Mouse), UniProt P70175 147-332)
T1 construct: also called NeDLG1; not shown: glutathione S-transferase (GST) encoded by pGEX-3X
T1 chain: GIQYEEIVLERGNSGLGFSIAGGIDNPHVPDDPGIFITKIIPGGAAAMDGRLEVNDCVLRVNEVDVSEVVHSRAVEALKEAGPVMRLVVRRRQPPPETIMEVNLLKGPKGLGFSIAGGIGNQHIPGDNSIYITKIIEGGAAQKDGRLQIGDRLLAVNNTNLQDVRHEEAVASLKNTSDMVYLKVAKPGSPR

T2: GST-MPP1 PDZ domain fusion protein (Homo sapiens (Human), UniProt Q00013 67-152)
T2 construct: also called 55 Kd erythrocyte membrane protein; not shown: glutathione S-transferase (GST) encoded by pGEX-3X
T2 sequence: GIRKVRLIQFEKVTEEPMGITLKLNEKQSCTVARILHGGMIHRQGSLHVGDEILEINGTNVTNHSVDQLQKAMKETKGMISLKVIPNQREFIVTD

T3: GST-TAX2 PDZ domain fusion protein (human, UniProt O14908 129-216)
T3 construct: not shown: glutathione S-transferase (GST) encoded by pGEX-3X
T3 chain: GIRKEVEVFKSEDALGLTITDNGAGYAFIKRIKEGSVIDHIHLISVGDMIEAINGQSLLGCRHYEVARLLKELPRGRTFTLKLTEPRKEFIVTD

T4: GST-SYN1a (alpha1-syntrophin) PDZ domain fusion protein (Homo sapiens (Human), UniProt Q13424 84-179)
T4 construct: also called SYN 1 α; not shown: glutathione S-transferase (GST) encoded by pGEX-3X
T4 sequence: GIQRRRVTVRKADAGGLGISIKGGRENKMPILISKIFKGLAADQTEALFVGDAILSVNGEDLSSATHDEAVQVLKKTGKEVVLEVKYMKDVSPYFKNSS

T5: GST-LIMK2 PDZ domain fusion protein (human, UniProt P53671 147-237)
T5 construct: also called human LIM domain kinase 2; not shown: glutathione S-transferase (GST) encoded by pGEX-3X
T5 sequence: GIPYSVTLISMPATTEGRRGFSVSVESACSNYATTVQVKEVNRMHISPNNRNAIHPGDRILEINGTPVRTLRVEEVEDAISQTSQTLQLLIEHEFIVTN

T6: GST-MINT3 PDZ domain fusion protein (human)
T6 construct: also called human MINT3; not shown: glutathione S-transferase (GST) encoded by pGEX-3X
T6 chain: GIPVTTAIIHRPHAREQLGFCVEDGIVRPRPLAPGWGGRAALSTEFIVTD

T7: GST-TAX33 PDZ domain fusion protein (Homo sapiens (Human), UniProt O14910 103-194)
T7 construct: not shown: glutathione S-transferase (GST) encoded by pGEX-3X
T7 sequence: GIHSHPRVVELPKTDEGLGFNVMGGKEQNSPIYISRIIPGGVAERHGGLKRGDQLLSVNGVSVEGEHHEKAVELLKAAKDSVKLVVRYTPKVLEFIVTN

T8: GST-DVL1 PDZ domain fusion protein (human)
T8 construct: also called human dishevelled segment polarity protein homolog; not shown: glutathione S-transferase (GST) encoded by pGEX-3X
T8 chain: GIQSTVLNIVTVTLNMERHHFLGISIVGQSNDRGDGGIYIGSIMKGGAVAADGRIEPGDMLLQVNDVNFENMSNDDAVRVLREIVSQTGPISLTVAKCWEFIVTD

T9: GST-MPP2 PDZ domain fusion protein
T9 construct: also called maguk p55 subfamily member 2 (DLG2); MMP2; not shown: glutathione S-transferase (GST) encoded by pGEX-3X
T9 chain: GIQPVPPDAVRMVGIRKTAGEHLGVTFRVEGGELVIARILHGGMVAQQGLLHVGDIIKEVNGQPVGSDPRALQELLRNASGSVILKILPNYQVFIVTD

T10: GST-prIL16 PDZ domains 1-2 fusion protein (Homo sapiens (Human), UniProt Q14005 1110-1325)
T10 construct: also called putative interleukin 16 precursor; not shown: glutathione S-transferase (GST) encoded by pGEX-3X
T10 sequence: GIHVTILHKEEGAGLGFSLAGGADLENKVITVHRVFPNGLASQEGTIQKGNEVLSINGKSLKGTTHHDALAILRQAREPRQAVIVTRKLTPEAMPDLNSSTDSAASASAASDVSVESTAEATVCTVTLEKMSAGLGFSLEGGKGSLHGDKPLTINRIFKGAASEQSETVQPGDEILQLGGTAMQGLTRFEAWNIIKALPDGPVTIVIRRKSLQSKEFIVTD


Molecular target: T1, GST-NeDLG PDZ domains 1-2 fusion protein
Assay: A assay

| Binder | binding result |
| --- | --- |
| Biotin-ARKANMKGSYSLVEAQKSKV [VCAM1 C-terminal peptide AA17L] | binds |

Molecular target: T11, GST-PSD95 PDZ domains 1-3 fusion protein (human, UniProt P31016 58-395 (rat entry))
T11 construct: not shown: glutathione S-transferase (GST) encoded by pGEX-3X
Assay: A assay

T11 sequence (P31016 other isoform, or with tags, fused parts or gaps): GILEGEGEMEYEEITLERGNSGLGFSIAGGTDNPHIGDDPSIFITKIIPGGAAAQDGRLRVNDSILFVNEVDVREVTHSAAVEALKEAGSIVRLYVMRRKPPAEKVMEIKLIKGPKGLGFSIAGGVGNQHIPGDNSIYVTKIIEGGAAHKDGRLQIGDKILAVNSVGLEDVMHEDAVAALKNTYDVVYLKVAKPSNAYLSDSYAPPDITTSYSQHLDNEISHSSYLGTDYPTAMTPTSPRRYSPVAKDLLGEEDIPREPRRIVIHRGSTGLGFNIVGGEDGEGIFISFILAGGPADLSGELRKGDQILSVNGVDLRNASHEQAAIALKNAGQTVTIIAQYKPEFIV

| Binder | binding result |
| --- | --- |
| Biotin-ISKATPALPTVSISSSAEV [CLASP-1 C-terminal peptide AA1L] | binds |

Molecular target: T2, GST-MPP1 PDZ domain fusion protein
Assay: A assay

| Binder | binding result |
| --- | --- |
| Biotin-ARKANMKGSYSLVEAQKSKV [VCAM1 C-terminal peptide AA17L] | binds |

Molecular target: T1, GST-NeDLG PDZ domains 1-2 fusion protein
Assay: A/G assays

| Binder | binding result |
| --- | --- |
| Biotin-QFMTADETRNLQNVDMKIGV [CD44 (long form) C-terminal peptide AA9L] | no binding |
| Biotin-AWDDSARAAGGQGLHVTAL [LPAP C-terminal peptide AA30L] | no binding |
| Biotin-ERLKLEPHEGLLLRFPYAA [CD98 (2F4) C-terminal peptide AA15L] | no binding |

Molecular target: T12, GST-KIAA0316 PDZ domain fusion protein (Homo sapiens (Human), UniProt Q14CM0 72-159)
T12 construct: also called K316; not shown: glutathione S-transferase (GST) encoded by pGEX-3X
Assay: A/G assays

T12 sequence (Q14CM0 other isoform, or with tags, fused parts or gaps): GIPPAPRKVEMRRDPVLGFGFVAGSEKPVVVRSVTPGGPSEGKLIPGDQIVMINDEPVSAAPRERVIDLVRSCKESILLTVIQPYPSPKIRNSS

| Binder | binding result |
| --- | --- |
| Biotin-AWDDSARAAGGQGLHVTAL [LPAP C-terminal peptide AA30L] | no binding |
| Biotin-ERLKLEPHEGLLLRFPYAA [CD98 (2F4) C-terminal peptide AA15L] | no binding |

Molecular target: T3, GST-TAX2 PDZ domain fusion protein
Assay: A/G assays

| Binder | binding result |
| --- | --- |
| Biotin-QFMTADETRNLQNVDMKIGV [CD44 (long form) C-terminal peptide AA9L] | no binding |
| Biotin-AWDDSARAAGGQGLHVTAL [LPAP C-terminal peptide AA30L] | no binding |
| Biotin-ISKATPALPTVSISSSAEV [CLASP-1 C-terminal peptide AA1L] | no binding |
| Biotin-LASKSAEEGKQIPDSLSTDL [DOCK2 C-terminal peptide AA40L] | no binding |
| Biotin-ERLKLEPHEGLLLRFPYAA [CD98 (2F4) C-terminal peptide AA15L] | no binding |
| Biotin-ARKANMKGSYSLVEAQKSKV [VCAM1 C-terminal peptide AA17L] | no binding |

Molecular target: T13, GST-NOS1 PDZ domain fusion protein (human, UniProt P29475 11-101)
T13 construct: also called human neuronal nitric oxide synthase; not shown: glutathione S-transferase (GST) encoded by pGEX-3X
Assay: A/G assays

T13 sequence (P29475 other isoform, or with tags, fused parts or gaps): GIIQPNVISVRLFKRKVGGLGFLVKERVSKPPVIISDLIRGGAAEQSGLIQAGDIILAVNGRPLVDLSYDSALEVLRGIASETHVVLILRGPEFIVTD

| Binder | binding result |
| --- | --- |
| Biotin-AWDDSARAAGGQGLHVTAL [LPAP C-terminal peptide AA30L] | no binding |
| Biotin-ERLKLEPHEGLLLRFPYAA [CD98 (2F4) C-terminal peptide AA15L] | no binding |

Molecular target: T4, GST-SYN1a (alpha1-syntrophin) PDZ …
Assay: A/G assays

| Binder | binding result |
| --- | --- |
| Biotin-QFMTADETRNLQNVDMKIGV [CD44 (long form) C-terminal peptide AA9L] | no binding |
| Biotin-AWDDSARAAGGQGLHVTAL [LPAP C-terminal peptide AA30L] | no binding |
| Biotin-ISKATPALPTVSISSSAEV [CLASP-1 C-terminal peptide AA1L] | no binding |
| Biotin-ERLKLEPHEGLLLRFPYAA [CD98 (2F4) C-terminal peptide AA15L] | no binding |
| Biotin-ARKANMKGSYSLVEAQKSKV [VCAM1 C-terminal peptide AA17L] | no binding |

Molecular target: T5, GST-LIMK2 PDZ domain fusion protein
Assay: A/G assays

| Binder | binding result |
| --- | --- |
| Biotin-QFMTADETRNLQNVDMKIGV [CD44 (long form) C-terminal peptide AA9L] | no binding |
| Biotin-AWDDSARAAGGQGLHVTAL [LPAP C-terminal peptide AA30L] | no binding |
| Biotin-ISKATPALPTVSISSSAEV [CLASP-1 C-terminal peptide AA1L] | no binding |
| Biotin-LASKSAEEGKQIPDSLSTDL [DOCK2 C-terminal peptide AA40L] | no binding |
| Biotin-ERLKLEPHEGLLLRFPYAA [CD98 (2F4) C-terminal peptide AA15L] | no binding |
| Biotin-ARKANMKGSYSLVEAQKSKV [VCAM1 C-terminal peptide AA17L] | no binding |

Molecular target: T6, GST-MINT3 PDZ domain fusion protein
Assay: A/G assays

| Binder | binding result |
| --- | --- |
| Biotin-QFMTADETRNLQNVDMKIGV [CD44 (long form) C-terminal peptide AA9L] | no binding |
| Biotin-AWDDSARAAGGQGLHVTAL [LPAP C-terminal peptide AA30L] | no binding |
| Biotin-ISKATPALPTVSISSSAEV [CLASP-1 C-terminal peptide AA1L] | no binding |
| Biotin-LASKSAEEGKQIPDSLSTDL [DOCK2 C-terminal peptide AA40L] | no binding |
| Biotin-ERLKLEPHEGLLLRFPYAA [CD98 (2F4) C-terminal peptide AA15L] | no binding |
| Biotin-ARKANMKGSYSLVEAQKSKV [VCAM1 C-terminal peptide AA17L] | no binding |

Molecular target: T7, GST-TAX33 PDZ domain fusion protein
Assay: A/G assays

| Binder | binding result |
| --- | --- |
| Biotin-ERLKLEPHEGLLLRFPYAA [CD98 (2F4) C-terminal peptide AA15L] | no binding |

Molecular target: T8, GST-DVL1 PDZ domain fusion protein
Assay: A/G assays

| Binder | binding result |
| --- | --- |
| Biotin-QFMTADETRNLQNVDMKIGV [CD44 (long form) C-terminal peptide AA9L] | no binding |
| Biotin-AWDDSARAAGGQGLHVTAL [LPAP C-terminal peptide AA30L] | no binding |
| Biotin-ISKATPALPTVSISSSAEV [CLASP-1 C-terminal peptide AA1L] | no binding |
| Biotin-LASKSAEEGKQIPDSLSTDL [DOCK2 C-terminal peptide AA40L] | no binding |
| Biotin-ERLKLEPHEGLLLRFPYAA [CD98 (2F4) C-terminal peptide AA15L] | no binding |
| Biotin-ARKANMKGSYSLVEAQKSKV [VCAM1 C-terminal peptide AA17L] | no binding |

Molecular target: T9, GST-MPP2 PDZ domain fusion protein
Assay: A/G assays

| Binder | binding result |
| --- | --- |
| Biotin-QFMTADETRNLQNVDMKIGV [CD44 (long form) C-terminal peptide AA9L] | no binding |
| Biotin-AWDDSARAAGGQGLHVTAL [LPAP C-terminal peptide AA30L] | no binding |
| Biotin-ISKATPALPTVSISSSAEV [CLASP-1 C-terminal peptide AA1L] | no binding |
| Biotin-LASKSAEEGKQIPDSLSTDL [DOCK2 C-terminal peptide AA40L] | no binding |
| Biotin-ARKANMKGSYSLVEAQKSKV [VCAM1 C-terminal peptide AA17L] | no binding |

Molecular target: T1, GST-NeDLG PDZ domains 1-2 fusion protein
Assay: G assay

| Binder | binding result |
| --- | --- |
| Biotin-ISKATPALPTVSISSSAEV [CLASP-1 C-terminal peptide AA1L] | binds |
| Biotin-LASKSAEEGKQIPDSLSTDL [DOCK2 C-terminal peptide AA40L] | binds |

Molecular target: T2, GST-MPP1 PDZ domain fusion protein
Assay: G assay

| Binder | binding result |
| --- | --- |
| Biotin-QFMTADETRNLQNVDMKIGV [CD44 (long form) C-terminal peptide AA9L] | binds |

Molecular target: T4, GST-SYN1a (alpha1-syntrophin) PDZ …
Assay: G assay

| Binder | binding result |
| --- | --- |
| Biotin-LASKSAEEGKQIPDSLSTDL [DOCK2 C-terminal peptide AA40L] | binds |

Molecular target: T10, GST-prIL16 PDZ domains 1-2 fusion …
Assay: G assay

| Binder | binding result |
| --- | --- |
| Biotin-QFMTADETRNLQNVDMKIGV [CD44 (long form) C-terminal peptide AA9L] | binds |

Molecular target: T9, GST-MPP2 PDZ domain fusion protein
Assay: G assay

| Binder | binding result |
| --- | --- |
| Biotin-ERLKLEPHEGLLLRFPYAA [CD98 (2F4) C-terminal peptide AA15L] | binds |
